# Experimental data taken from the domain aggregation screens of Martell et al. (2025).
# Test: soluble fraction after stress (log2 fold change); higher = more stays soluble; pooled small domains, quantitative proteomics
# Settings: stress: 75 degC
# 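Further: 20 min heating vs room temperature control held 20 min.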
row,Sequence,soluble fraction (log2)
1,HMEEQIEVPVQINGKVRSKLTVAPETDEKQIEALALADPKVQQQLEGKRVLKVIVAQKRLVNIVA,-0.161
2,HMEESTYQWNNFVRDFYASRVSAQYTNKLKVAAILWHHVKNTPQSKIYHDNLVSKYAEEINYFK,-2.8
3,HMEETEVPPVTGYEQSKASEVLTGKGLIPDIITVADEETAAGYVIRTDPASGEKVPSGTTVKVYVSSGP,0.248
4,HMEETGFYIKLQDQEVVIFHNDQVTPYEYTGIREEVLPESELEKLREGFFVEDEKELYSVLENLS,0.0782
5,HMEETLEELGKEYESAFTMYEKLWSYYKKQNYHQVNHKRSERYEILLGFVREYHPEKVEYYRELL,0.378
6,HMEETLRALAKKISEKVLKSGRSTTLEPMNPYERRIIHSAVSEIEGVSSKSVGEEPYRKVVISSDNP,0.0756
7,HMEETLRELAVKISKQVIKTGRNSVLEPMNPYERRIIHAVISEIEGVSSKSVGEDPNRKVVIMSTNP,-0.217
8,HMEEYTVEFVKHKVKRKQTLYTISKLYNVSIDDIIKYNSQIEGFNLSRRMELNIPVKKTLIVKNE,-2.55
9,HMEFDTEFVLRQAMHAFMQYGYAKTSMQKLKEATHLHPGSIYAAYGNKKGLFLAATEQYQKDR,0.288
10,HMEFEYFQLRDHLYNLIMHPDKEKLKKDPDYLKLMSMAFSLLEDQNVGKDILEIAIKSIENFK,-0.847
11,HMEFLDLEIDVDATDGRLLAFLAAKGEVVSQTFNDTIITVRVRMPTGAMGQVHRSALAIRPA,-2.24
12,HMEFLDQAFLHETMRKVNQDATINLLKKVYEVPQKFIGRKVTVQYDPEDLSRVYVKDLSFPEPVTVYPV,-0.18
13,HMEFNDLNDDEKAILHIMYNTGEKMTTALAARITNRGRNFASKLLKSLVKKEILEWHGTSKQDRNQYYTLA,-0.0971
14,HMEFQVKVIVSSLNIRSGPGTSYDTLGTVTKGDIFTIVETNSDSTWGKMQSGGWISIKDAYVKK,-3.92
15,HMEFTFTLPRGYIDDTGMIHREGTMRLANAADEILPLKDPRVQQNPGYLTIILLARVITKLGSL,0.33
16,HMEFTKSPLDEIAGVGPARKRALLAAFGTAKAVSQAALADLEKTPGVNAATARLVYAHFHEK,-0.227
17,HMEFTVFMNSAGGSKLQVVKTVKELTGLGLKEAKAIVDGSPGPVKEGLSKADAEAMLAKLQEAGADVEL,0.013
18,HMEFYYSDLVGMIVYDTGGNELGKVQAVLNHGAGDLLEIHGVNLKTSILIPFTKEAVPTVDIAARRIVTDP,0.246
19,HMEGAEDMNRALALAFLRDNSRSTVAQLAEHLGSSKRSAERLVAQLKDEGVLERQGSPRAGLWIVHI,-0.169
20,HMEGEVVESPLVGVAYLASGPDKPAFVQVGDSVSKGQTLLIIEAMKVMNEVPAPRDGIVTEILV,0.1
21,HMEGFSAGQFVRASVDNTAFYLKRPKGDAVADKLLRRGASMKVISASGDYLKVELDSGEVGFVPPVMVE,0.0267
22,HMEGIWAVFYDGKPINLKSSSLVANYPGPKYKKVSFSNPGHAENLAKKLNAQHNTDKFGVYLLKSGDKFS,-0.113
23,HMEGMSIYVTVNGDMVHLTGKMSYVFVDVFEHIDFDLSKPQGSGIVTKLNGRDAQYMEEIRSGDMIEIYWR,-0.956
24,HMEGNLVEIFEDAFGRTMSTMDIEYINQFKRTGYDDEMIVSALREAVKSNALSFRYIERVLENWAHS,-0.881
25,HMEGTEVTTEPPGAQIEFDGKQFGPTPTRVPGLAAGKQFRITLAGYQEAKPKLKNNPKEGEPLSFTLTAI,0.338
26,HMEGTVQQDKFDAYKAKFEDAISNDLNTSMAITIIYDLLKDDMNDKTKLALINDFDKVLSLNLTTA,-0.219
27,HMEGVTVPDVTRISLDEAEELLTSYGLRFEVADRRANSAFPGNYVIDQAPSAEVIVKPNRKIYLTVNAA,-0.238
28,HMEHDTVLSKVFRRLREAHVPLSLDDIYQGLRKTVNNNSEIREKIVTLQERGLVAEILGPKGGKKYVAKPT,-0.693

row,Sequence,soluble fraction (log2)
1,HMEHIEVDTSHIAVGSKVKHKAFGLGEITDKGNTYVFVKFDGQAIPKKFQFPGAFTQGFLTK,0.236
2,HMEHPNNTELTQKLELGTELMQYGDYNYALKVFNNVIDSDPEWSEAWNKRATVYFLMSQFTDSLSDIDRV,0.331
3,HMEIDMQEGIKTIILMMKEHNITPSEAMKIYKSANGDIHYISKIYNHFKNKGADNFVALMIKMVKPGEFIE,-2
4,HMEIEETKKNSRTKIPENFDYKLINGLSNEIRAKLELIRPIDLLQASRIDGMTPAALTLVHLWIKKYSG,-1.52
5,HMEIEIPEELQNKFAEIPELKTAFESLTPGRQRAYVLYFSQPKQSKTREARIEKYIPHILDGKGMN,0.461
6,HMEIESAHAQVLGVREIAASGATQHWIAFRFSDGHQRELLATPSQADVIFRGQQGVVHFAGDRLTGWIPE,0.104
7,HMEIEYFDDEELDAYKGRKSDSYTDEEAAQFAEVLYTMRPSEVKDWTASLTLRGISMPDQIKDEAIMLME,-0.148
8,HMEIGELITLYRKQAGLTIDELSEKANVPKGTLNKIIGGITKAPTLETMRSIAYALGKKLADFDN,-0.503
9,HMEIHQVEFGGKVISFVLERKPVKNVNLHIKPDMTVMVSANEKVPLDFILGFVKQKAAWILKNIQFFEDV,-3.57
10,HMEIKDQADAYGKMEPASAAAILSEMTNDLTLVAKILDSMQTSKSALILQNMKPTTAAQVTTKMTAMK,0.0474
11,HMEILTRQLTHYLHLLPPAQQEVVRGVYLQDQTLQEIADRVQIPLGTVKSRLRLGLSKLREQIEQEHE,-1.36
12,HMEIMELPEYVVRSGSGLDAFREKWDLWDQGLMYDLKDKRAVFPIFIDGVMIDAVGRALAGAEPKWLRYTG,-0.176
13,HMEINEDEIYEKIMIEIEQDNKVKSTWAKALSQSDGNKDKAESLYISMRFEELKYHQSYQKEELNLKDNQQ,0.0614
14,HMEIPRYRLIGADGGRMVDLGEGQGAIPPVDVKRGMIDMPGLGKGYYTADGKSAVITNADGSKTRVL,-0.25
15,HMEIRNLMPILSHFLNENDIKLSRESVNLVLDRASGNRENLNNELKKIHDYSFSNKIIDFETIKKLTNLG,-0.0896
16,HMEISLAETLRSSLHMILGWYQNTGDKKLLELIRLHLQAYVNTGNSLNPEMEEIRAALETLGEGKEAFRP,-2.35
17,HMEISNWLEEIGLSRYTETLSEFPLEDLVEFTDDDFKELGVLTPHRKKLLAAIATLNNDASSN,-0.245
18,HMEISTEVPLRGGTISEEALEALNRLPGVTASNIDGKSISVDVADNAELRVSDINQVLAVHSPDTRV,-0.0403
19,HMEITRDTVIQWLEAERRSQTWLSKQLGVSVQAVSNWLREKNPQTISASAQITIRALMEEDAAK,-1.11
20,HMEIVQVIAQNIQDLLDKHKISVSELSGYLGISRQTLTNYLKTTSTIDSVQLVKIADFFNIPAEYLLKDH,-1.5
21,HMEIVSTEEKIKRAAEQVFLLRGLEGARMQEIADVAGINKAMLHYYFRNKETLFDVILSEKL,-2.11
22,HMEIYEEDRTKVVNDLMDQILNRQITMDAAATKFINIRNSLGTTITKEDEQNLEMLRGLIFDKT,0.2
23,HMEIYIDGNKYVGELRNGKPNGRGTITYTGDGSKYVGEWKNGKRYGRGKMAYTNGTTKEGVWKDDEFLYAT,0.181
24,HMEKAKVPSVIGMTEANAKRTIRDAGFKVGRVTRVESEAYDKGKVIEQQYEAGSELEKKKPISIVVSKGKK,-0.108
25,HMEKALEVKYQKMVELLGDQSTFYVDEVKKIFPEMKKSSLYWNMSKLVEGGYLRRIRNGVYAFNE,-0.401
26,HMEKEKIKEALIGYFEAEPEEKFTVQELADKLKMNKAGQFNFVVQAVAQLEHDKVITLDDEGNFSLVRHE,0.176
27,HMEKERYDTGIGELNRVLGGGLVKGSLILISGDPGIGKSTLLLQTANNISKKYGKVLYVSGEESEEQIKIR,-0.879
